T1: Zas1 (short cDNA ORF, two zinc fingers) (Schizosaccharomyces pombe, UniProt Q9UTS5-2 1-845)
T1 sequence: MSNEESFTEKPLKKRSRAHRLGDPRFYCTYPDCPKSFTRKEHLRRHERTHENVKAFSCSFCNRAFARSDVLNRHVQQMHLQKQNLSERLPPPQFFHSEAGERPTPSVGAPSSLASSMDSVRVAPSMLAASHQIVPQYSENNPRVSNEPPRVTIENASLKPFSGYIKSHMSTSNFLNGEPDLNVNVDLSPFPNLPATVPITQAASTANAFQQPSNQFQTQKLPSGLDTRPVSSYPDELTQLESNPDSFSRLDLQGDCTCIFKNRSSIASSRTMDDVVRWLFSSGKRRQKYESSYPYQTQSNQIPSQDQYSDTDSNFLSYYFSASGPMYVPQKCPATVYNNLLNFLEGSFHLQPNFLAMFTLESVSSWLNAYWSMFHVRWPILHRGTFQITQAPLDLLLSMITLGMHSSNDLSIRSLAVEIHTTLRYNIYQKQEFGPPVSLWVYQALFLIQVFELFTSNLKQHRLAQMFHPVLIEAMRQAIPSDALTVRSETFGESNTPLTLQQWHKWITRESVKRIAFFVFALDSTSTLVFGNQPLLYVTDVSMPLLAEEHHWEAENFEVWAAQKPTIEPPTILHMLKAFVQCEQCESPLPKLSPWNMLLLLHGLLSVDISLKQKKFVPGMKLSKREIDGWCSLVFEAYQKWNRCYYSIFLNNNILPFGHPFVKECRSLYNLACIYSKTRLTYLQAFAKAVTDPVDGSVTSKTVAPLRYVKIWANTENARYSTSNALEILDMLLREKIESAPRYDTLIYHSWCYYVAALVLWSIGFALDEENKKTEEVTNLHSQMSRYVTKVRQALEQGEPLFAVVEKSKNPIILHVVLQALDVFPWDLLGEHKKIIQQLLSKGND

B1: Ppob1 (dsDNA)
DNA 1: AAAGCCCCCACGAAGGTCGTCTTTCCCCACATAGATTATT
DNA 2: AATAATCTATGTGGGGAAAGACGACCTTCGTGGGGGCTTT
B2: Pcnd1 (dsDNA)
DNA 1: AATGGACCCCCACACAGGACATATAGGTGGGGTTATTGT
DNA 2: ACAATAACCCCACCTATATGTCCTGTGTGGGGGTCCATT

Key:
[1] = biological target: Zas1 (recombinant, from the short zas1 cDNA ORF) (S. pombe); experiment: SEC-MALS; analytical SEC coupled to multiangle light scattering of purified Zas1; two independent chromatography runs
[2] = biological target: T1, Zas1 (short cDNA ORF, two zinc fingers); experiment: EMSA; 20 uM ZnCl2, 5 mM MgCl2; EMSA: 10 mM Tris-HCl pH 8.0, 125 mM NaCl, 5 mM MgCl2, 20 uM ZnCl2; 400 nM DNA, 0/200/400/800 nM Zas1; 90 min on ice; 1.8% agarose, Tris-acetate pH 8.7, 6 C; details: protein: recombinant; chain copies: 2; label: 5' 6-FAM on strand 1; blunt

Molecule	stoichiometry N [1]	binding result [2]
Zas1 (recombinant, from the short zas1 cDNA ORF) (natural protein)	2	–
B1	–	binds
B2	–	binds

Source: article PMC6028546, “Control of mitotic chromosome condensation by the fission yeast transcription factor Zas1”
